From US20130156779A1 (GlaxoSmithKline, published 2013)
Read-outs that look alike come from different tables or passages of the source.

Assays:
Human HER3 receptor [1] = molecular target: T1, Human HER3 receptor (human, UniProt P21860 20-1342); experiment: cell-based or functional assay
Human HER3 receptor [2] = molecular target: T1, Human HER3 receptor; experiment: cell-based or functional assay; remark: listed apart in the source
Human HER3 receptor [3] = molecular target: T1, Human HER3 receptor; experiment: cell-based or functional assay; remark: listed apart in the source
Human HER3 receptor [4] = molecular target: T1, Human HER3 receptor; experiment: cell-based or functional assay; remark: listed apart in the source
[5] = molecular target: T2, Full-length human HER3 extracellular domain (ECD) (human, UniProt P21860 20-643); experiment: affinity summary table, method not given
T2 construct: also called human HER3 ECD; HER-3 ECD full length

Human HER3 ECD domain II [6] = molecular target: T3, Human HER3 ECD domain II (human, UniProt P21860 184-329); experiment: affinity summary table, method not given
T3 construct: also called D2; Domain 2

Human HER3 ECD domain I = molecular target: T4, Human HER3 ECD domain I (human, UniProt P21860 20-183); experiment: DELFIA, plate coated with HER3 Domain I 1ug/ml
T4 construct: also called D1; sub-domain 1
Protocol: (§1) Dissociation Enhanced Lanthanide Fluorescence Immunoassay (DELFIA) for detection of the anti-HER3 antibodies to HER3 extracellular domain (ECD) was used. The DELFIA procedures were as follows: white Maxisorp 96-well plates (Nunc #437796) were coated with 100 ul/well of 1 ug/ml HER-3 ECD full length or HER3Domain I, II, III and IV in 0.1M carbonate buffer pH 9.5 overnight at 4° C. These plates were blocked with casein in TBS (Thermo Scientific #37532 lot#JD121074). The neat hybridoma supernatant, or the purified anti-HER3 antibodies diluted in Perkin Elmer #4002-0010 Assay Buffer from 10 ug/ml (or 100 ug/ml) to 0.01 ug/ml, or the PK serum samples with a minimum of 3 dilutions (100 ul/well) were added to the plate. These samples were incubated for 2 hours at room temperature while on a plate shaker or overnight at 4° C. […] The plate was washed 4 times with tris-buffer plus 0.05% tween-20 (Perkin Elmer #4010-0010) on a BIOTEK™ plate washer following each antibody incubation step. 100 ul/well of DELFIA enhancement solution (Perkin Elmer 1244-105) was added for 5 minutes at room temperature. […] Antibody binding was recorded as europium counts per well.

Human HER3 ECD domain IV = molecular target: T5, Human HER3 ECD domain IV (human, UniProt P21860 496-643); experiment: DELFIA, plate coated with HER3 Domain IV 1ug/ml
T5 construct: also called D4; sub-domain 4
Protocol: as §1

[7] = molecular target: T6, Human HER3 ECD domain III (human, UniProt P21860 330-495); experiment: DELFIA, plate coated with HER3 Domain III 1ug/ml
T6 construct: also called D3; Domain 3
Protocol: as §1

[8] = molecular target: T2, Full-length human HER3 extracellular …; experiment: BIACORE 2000 SPR, mAb captured, HER3 protein as analyte, 25 C
Human HER3 ECD domain II [9] = molecular target: T3, Human HER3 ECD domain II; experiment: as above
[10] = molecular target: T7, Human HER3 ECD domain 1-2 protein (human, UniProt P21860 20-329); experiment: as above
T7 construct: also called D1-2; sub-domains 1-2

[11] = molecular target: T8, Human HER3 ECD domain 2-3 protein (human, UniProt P21860 184-495); experiment: as above
T8 construct: also called D2-3; sub-domains 2-3

[12] = molecular target: T9, Murine HER3 on B16 and B16F10 melanoma cells (murine, UniProt Q61526 20-1339); experiment: flow cytometry on B16F10 murine melanoma cells, antibody labelled with a Zenon APC kit [c]
T9 construct: whole, on cells
From the text: B16F10 ZENON™ labeling kits: [0530] Mouse IgG1 PE—Invitrogen Z25021 [0531] Mouse IgG1 APC—Invitrogen Z25051 [0532] Mouse IgG2b APC—Invitrogen Z25151 Method: Commercially available anti-human EGFR and HER2 antibodies were provided. A commercially available HER3 antibody represented by the provider to recognizes human HER3 was provided. The murine 15D5 antibody, murine 1D9 antibody (M5.1D9.1F5), murine 24H5 antibody (M5.24H5.C2) antibodies were also provided. These antibodies were labeled with either PE or APC using the ZENON™ labeling kits (Invitrogen). 5×10⁶ B 16, or B16F10, murine melanoma cells were added to flow cytometry tubes containing the labeled anti-HER3 antibodies. Cells and antibodies were incubated for 30 minutes on ice in the dark, washed and resuspended in FACS buffer. Cells were then analyzed on a FACSCANTO™ flow cytometer. Data analysis was performed using […]™ software, developed by BD Biosciences. Cell populations were gated using forward vs. side scatter and histograms of fluorescent intensities were generated.

Human HER3 ECD domain II [13] = molecular target: T3, Human HER3 ECD domain II; experiment: DELFIA (europium time-resolved fluorescence), plate coated with HER3 Domain II 1ug/ml, antibody titrated 0.001-10 ug/ml

T3 sequence (P21860 184-329): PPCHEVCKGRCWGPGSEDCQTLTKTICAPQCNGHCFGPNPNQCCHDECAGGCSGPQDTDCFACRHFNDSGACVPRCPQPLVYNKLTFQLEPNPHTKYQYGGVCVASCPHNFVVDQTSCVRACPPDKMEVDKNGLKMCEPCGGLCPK
T2 sequence (P21860 20-643): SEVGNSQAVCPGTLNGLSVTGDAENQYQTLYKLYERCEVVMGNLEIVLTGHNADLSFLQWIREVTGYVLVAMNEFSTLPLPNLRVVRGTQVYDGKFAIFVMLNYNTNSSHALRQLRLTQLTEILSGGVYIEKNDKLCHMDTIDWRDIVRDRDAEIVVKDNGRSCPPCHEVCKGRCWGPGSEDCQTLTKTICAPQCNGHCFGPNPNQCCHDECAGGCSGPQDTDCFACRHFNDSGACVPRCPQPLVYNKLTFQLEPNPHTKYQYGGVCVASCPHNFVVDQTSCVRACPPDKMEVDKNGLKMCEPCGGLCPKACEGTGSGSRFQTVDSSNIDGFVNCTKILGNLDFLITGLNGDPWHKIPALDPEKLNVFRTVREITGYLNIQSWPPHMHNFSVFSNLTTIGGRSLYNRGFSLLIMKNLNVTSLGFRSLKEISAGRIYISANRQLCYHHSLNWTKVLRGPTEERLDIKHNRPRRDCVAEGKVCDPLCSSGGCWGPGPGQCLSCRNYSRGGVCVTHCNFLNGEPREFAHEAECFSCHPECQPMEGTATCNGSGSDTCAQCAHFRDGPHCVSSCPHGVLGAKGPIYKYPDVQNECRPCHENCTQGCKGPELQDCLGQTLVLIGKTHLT
T1 sequence (P21860 20-1342 limits assumed): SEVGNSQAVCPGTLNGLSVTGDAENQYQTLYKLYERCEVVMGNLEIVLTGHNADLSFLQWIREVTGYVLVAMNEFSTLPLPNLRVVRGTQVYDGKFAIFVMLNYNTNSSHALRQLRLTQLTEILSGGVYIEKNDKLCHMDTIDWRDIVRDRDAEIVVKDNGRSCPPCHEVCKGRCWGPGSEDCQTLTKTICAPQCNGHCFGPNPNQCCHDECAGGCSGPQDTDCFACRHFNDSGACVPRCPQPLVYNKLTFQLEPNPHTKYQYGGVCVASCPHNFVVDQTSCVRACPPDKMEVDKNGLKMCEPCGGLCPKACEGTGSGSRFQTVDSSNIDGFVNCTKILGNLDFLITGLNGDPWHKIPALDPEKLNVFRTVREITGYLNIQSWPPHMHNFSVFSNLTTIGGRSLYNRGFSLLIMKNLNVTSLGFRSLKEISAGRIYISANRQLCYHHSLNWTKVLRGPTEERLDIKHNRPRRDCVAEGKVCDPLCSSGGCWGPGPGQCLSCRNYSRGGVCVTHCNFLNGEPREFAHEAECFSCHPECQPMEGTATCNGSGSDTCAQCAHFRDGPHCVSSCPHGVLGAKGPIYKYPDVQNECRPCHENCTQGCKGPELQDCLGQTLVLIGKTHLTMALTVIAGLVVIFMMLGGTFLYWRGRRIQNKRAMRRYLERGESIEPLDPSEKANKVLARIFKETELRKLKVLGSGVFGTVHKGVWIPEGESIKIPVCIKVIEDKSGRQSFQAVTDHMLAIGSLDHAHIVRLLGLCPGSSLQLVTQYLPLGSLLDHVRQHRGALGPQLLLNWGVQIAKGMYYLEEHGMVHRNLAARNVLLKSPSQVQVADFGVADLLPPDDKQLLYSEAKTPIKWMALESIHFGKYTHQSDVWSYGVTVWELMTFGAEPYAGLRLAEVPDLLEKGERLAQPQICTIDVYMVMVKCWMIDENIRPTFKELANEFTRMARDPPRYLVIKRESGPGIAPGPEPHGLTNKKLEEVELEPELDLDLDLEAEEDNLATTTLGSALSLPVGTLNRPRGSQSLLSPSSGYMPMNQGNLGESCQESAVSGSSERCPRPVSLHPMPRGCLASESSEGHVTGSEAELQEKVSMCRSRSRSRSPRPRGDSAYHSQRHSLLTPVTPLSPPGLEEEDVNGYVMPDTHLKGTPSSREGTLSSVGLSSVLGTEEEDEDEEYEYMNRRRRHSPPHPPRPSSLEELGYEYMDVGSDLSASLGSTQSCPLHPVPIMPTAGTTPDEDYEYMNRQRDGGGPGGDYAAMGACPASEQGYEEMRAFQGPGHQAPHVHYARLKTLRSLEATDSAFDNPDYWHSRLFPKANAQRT
T7 sequence (P21860 20-329): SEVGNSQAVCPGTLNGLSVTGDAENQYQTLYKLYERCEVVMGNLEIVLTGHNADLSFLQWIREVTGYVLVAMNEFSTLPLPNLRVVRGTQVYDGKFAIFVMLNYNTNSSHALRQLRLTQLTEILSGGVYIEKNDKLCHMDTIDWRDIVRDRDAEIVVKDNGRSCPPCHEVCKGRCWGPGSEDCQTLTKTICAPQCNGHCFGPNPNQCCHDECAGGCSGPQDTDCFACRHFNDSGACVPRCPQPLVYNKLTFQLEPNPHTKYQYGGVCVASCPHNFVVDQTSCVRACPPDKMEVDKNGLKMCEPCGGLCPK
T8 sequence (P21860 184-495): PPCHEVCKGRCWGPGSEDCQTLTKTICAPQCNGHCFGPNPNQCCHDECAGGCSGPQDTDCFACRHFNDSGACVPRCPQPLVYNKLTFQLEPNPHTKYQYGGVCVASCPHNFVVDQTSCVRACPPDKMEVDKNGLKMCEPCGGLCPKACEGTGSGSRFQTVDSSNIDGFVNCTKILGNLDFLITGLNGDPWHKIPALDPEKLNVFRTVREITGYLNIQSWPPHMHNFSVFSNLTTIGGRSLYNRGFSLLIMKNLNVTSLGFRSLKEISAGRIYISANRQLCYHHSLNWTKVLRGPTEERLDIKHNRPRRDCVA
T5 sequence (P21860 496-643): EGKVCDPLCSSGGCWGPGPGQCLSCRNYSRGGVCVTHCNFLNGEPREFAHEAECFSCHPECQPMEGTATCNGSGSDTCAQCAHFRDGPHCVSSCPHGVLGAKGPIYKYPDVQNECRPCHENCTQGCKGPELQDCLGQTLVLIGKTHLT
T9 sequence (Q61526 20-1339, one chain of several): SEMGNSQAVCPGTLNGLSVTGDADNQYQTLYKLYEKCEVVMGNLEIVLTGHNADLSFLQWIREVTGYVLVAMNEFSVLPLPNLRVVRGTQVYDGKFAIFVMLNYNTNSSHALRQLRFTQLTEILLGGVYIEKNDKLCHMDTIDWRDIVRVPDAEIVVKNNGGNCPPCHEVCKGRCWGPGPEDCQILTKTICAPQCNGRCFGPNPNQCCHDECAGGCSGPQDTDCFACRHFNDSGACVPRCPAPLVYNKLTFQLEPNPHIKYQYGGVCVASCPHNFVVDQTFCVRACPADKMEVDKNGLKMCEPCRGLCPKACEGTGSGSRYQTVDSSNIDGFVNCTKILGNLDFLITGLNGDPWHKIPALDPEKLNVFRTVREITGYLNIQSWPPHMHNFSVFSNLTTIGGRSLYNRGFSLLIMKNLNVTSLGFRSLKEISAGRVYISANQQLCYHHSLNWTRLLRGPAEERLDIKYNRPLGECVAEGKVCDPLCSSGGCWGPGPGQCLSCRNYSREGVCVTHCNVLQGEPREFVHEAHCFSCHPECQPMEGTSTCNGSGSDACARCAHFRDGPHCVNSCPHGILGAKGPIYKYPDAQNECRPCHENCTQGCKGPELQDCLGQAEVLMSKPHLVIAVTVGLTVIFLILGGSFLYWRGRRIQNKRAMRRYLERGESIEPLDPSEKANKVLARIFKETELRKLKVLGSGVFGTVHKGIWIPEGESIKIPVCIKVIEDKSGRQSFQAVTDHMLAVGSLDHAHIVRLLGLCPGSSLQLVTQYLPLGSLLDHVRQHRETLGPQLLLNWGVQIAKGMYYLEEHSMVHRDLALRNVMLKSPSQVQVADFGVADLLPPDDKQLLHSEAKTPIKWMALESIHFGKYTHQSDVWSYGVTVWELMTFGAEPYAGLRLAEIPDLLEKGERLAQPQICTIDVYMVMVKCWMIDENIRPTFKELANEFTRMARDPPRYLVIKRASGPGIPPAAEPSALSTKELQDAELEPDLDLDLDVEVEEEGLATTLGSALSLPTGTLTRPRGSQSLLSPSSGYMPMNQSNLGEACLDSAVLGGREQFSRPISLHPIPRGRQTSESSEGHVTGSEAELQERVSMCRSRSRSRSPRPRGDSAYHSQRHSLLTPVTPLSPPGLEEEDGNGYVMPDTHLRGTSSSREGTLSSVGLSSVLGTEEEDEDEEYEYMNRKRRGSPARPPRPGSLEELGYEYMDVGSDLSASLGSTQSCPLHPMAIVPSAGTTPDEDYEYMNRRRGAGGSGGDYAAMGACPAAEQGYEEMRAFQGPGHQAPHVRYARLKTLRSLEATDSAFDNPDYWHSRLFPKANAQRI
T6 sequence (P21860 330-495): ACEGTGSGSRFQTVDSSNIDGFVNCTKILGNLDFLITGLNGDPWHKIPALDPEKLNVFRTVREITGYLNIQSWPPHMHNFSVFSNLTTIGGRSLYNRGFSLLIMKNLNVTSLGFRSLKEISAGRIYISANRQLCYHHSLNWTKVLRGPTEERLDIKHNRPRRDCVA
T4 sequence (P21860 20-183): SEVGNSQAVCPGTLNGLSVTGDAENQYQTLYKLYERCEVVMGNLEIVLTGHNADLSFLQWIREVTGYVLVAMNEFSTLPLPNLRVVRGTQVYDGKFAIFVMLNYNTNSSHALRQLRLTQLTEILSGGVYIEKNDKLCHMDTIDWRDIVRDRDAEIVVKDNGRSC

B1: Murine 15D5 antibody (M5.15D5.2A1.1H10) (antibody, IgG1, V domains shown)
VH: EFQLQQSGPELVKPGASVKISCKASGYSFTDYNMNWVKQNNGKSLEWIGGINPNYGTTVYNQKFKGKATLTVDQSSSTAYMQLVSLTSEDSAVYYCARMTTIVPFDYWGQGTTLTVSS
VL: DIQMTQTTFSLSASLGDRVTISCRASQDISNYLNWYQQKPDGTVKLLIYYTSTLHSGVPSRFSGSGSGTDYFLTIRNLEEEDIATYFCQQGYTLPWTFGGGTKLDIK
notes: Mouse monoclonal, IgG1; also called m15D5; M5.15D5.1C1
B1 was tested, and the “Phospho-HER3 ELISA IC50, heregulin induced, BT-474 cells” value (Human HER3 receptor [1]) was 0.12 µg/mL, the “Phospho-HER3 ELISA IC50, heregulin induced, BxPC3 cells” value (Human HER3 receptor [1]) was 0.0541 µg/mL and the “Phospho-HER3 ELISA IC50, heregulin induced, CHL-1 cells” value (Human HER3 receptor [1]) was 0.138 µg/mL. The “Phospho-HER3 ELISA IC50, heregulin induced, MCF7 cells” value (Human HER3 receptor [1]) was 0.0593 µg/mL, the “Phospho-HER3 ELISA IC50, heregulin induced, N87 cells” value (Human HER3 receptor [1]) was 0.0533 µg/mL and the “Phospho-HER3 ELISA IC50, heregulin induced, SK-BR-3 cells” value (Human HER3 receptor [1]) was 0.0191 µg/mL. The “Phospho-AKT ELISA IC50, heregulin induced, BxPC3 cells” value (Human HER3 receptor [2]) was 0.0605 µg/mL, the “Phospho-HER3 ELISA IC50, betacellulin induced, SK-BR-3 cells” value (Human HER3 receptor [3]) was 0.0368 µg/mL and the “Phospho-HER3 ELISA IC50, epidermal growth factor induced, SK-BR-3 cells” value (Human HER3 receptor [3]) was 0.0233 µg/mL. The “Phospho-HER3 ELISA IC50, heregulin induced, SK-BR-3 cells” value (Human HER3 receptor [3]) was 0.0191 µg/mL, the “Phospho-HER3 … IC50, heregulin induced, CHO EGFR + HER3” value (Human HER3 receptor [4]) was 0.103 µg/mL and the “Phospho-HER3 … IC50, heregulin induced, CHO HER4 + HER3” value (Human HER3 receptor [4]) was 0.141 µg/mL. The Kd [5] was ~2 nM, the Kd (Human HER3 ECD domain II [6]) was 0.07 nM and the binding result (Human HER3 ECD domain I) was “no binding (tested: 10 ug/ml)”. For the same binder, the binding result (Human HER3 ECD domain IV) was “no binding (tested: 10 ug/ml)”, the binding result [7] was “no binding (tested: 10 ug/ml)” and the Kd [8] was 2.32 nM. For the same binder, the kon [8] was 41200 M⁻¹ s⁻¹, the Kd (Human HER3 ECD domain II [9]) was 0.07 nM and the kon (Human HER3 ECD domain II [9]) was 1.76e+06 M⁻¹ s⁻¹. It also gave a Kd [10] of 0.17 nM, a kon [10] of 345000 M⁻¹ s⁻¹ and a Kd [11] of 0.06 nM. The kon [11] was 1.4e+06 M⁻¹ s⁻¹, the binding result [12] was “binds” and the “EC50 (read off the curve)” value (Human HER3 ECD domain II [13]) was ~0.2 µg/mL.
